Laboratory results: article PMC6420155
Where a chain is given by its changes, count along the chain named. In names and notes the source's numbering stands.

T1: dopamine D2 receptor (long isoform), C-terminally tagged with Renilla luciferase variant 8, P14416
T1 chain: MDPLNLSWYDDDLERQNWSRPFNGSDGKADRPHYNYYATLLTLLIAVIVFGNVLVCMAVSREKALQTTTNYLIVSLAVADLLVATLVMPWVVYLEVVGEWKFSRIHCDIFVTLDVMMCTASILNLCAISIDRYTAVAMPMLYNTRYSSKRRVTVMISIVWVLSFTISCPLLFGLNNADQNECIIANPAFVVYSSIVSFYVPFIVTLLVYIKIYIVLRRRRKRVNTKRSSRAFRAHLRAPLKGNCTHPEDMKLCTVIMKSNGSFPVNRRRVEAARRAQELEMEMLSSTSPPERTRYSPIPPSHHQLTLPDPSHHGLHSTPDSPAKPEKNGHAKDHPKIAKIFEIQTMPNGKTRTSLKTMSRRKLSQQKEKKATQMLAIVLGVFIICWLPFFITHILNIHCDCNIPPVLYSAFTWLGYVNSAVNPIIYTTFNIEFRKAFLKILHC

T2: M2 muscarinic acetylcholine receptor, C-terminally tagged with Renilla luciferase variant 8, P08172
T2 chain: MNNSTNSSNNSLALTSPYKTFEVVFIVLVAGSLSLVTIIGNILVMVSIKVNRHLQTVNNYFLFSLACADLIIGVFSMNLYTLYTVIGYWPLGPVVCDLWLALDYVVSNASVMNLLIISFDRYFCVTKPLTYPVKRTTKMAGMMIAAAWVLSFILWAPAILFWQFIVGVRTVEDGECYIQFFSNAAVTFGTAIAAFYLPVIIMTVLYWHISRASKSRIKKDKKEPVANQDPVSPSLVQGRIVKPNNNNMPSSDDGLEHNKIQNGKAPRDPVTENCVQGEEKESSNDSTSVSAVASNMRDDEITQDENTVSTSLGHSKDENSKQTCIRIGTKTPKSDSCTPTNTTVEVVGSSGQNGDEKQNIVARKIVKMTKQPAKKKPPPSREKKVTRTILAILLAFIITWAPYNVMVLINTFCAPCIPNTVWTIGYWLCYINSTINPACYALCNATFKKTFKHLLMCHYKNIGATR

T3: dopamine D1 receptor, C-terminally tagged with Renilla luciferase variant 8, P21728
T3 chain: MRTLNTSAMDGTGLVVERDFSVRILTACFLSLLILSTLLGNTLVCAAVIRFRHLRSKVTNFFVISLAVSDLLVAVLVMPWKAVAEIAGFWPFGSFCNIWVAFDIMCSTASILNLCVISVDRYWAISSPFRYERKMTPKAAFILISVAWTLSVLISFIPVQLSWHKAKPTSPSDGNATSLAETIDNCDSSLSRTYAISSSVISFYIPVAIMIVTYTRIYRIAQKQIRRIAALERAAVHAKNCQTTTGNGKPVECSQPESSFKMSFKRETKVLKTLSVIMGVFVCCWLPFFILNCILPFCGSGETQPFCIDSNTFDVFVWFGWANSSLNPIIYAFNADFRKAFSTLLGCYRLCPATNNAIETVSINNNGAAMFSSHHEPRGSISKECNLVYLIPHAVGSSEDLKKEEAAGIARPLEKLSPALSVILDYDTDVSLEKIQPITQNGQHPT

T4: HA-tagged dopamine D2 receptor, P14416
T4 chain: T1 chain

B1: Venus-tagged arrestin-3 A87V base mutant, P32120 K313A (protein)
chain: MGEKPGTRVFKKSSPNCKLTVYLGKRDFVDHLDKVDPVDGVVLVDPDYLKDRKVFVTLTCAFRYGREDLDVLGLSFRKDLFIANYQVFPPTPNPPRPPTRLQERLLRKLGQHAHPFFFTIPQNLPCSVTLQPGPEDTGKACGVDFEIRAFCAKSLEEKSHKRNSVRLVIRKVQFAPEKPGPQPSAETTRHFLMSDRSLHLEASLDKELYYHGEPLNVNVHVTNNSTKTVKKIKVSVRQYADICLFSTAQYKCPVAQVEQDDQVSPSSTFCKVYTITPLLSNNREKRGLALDGKLKHEDTNLASSTIVKEGANAEVLGILVSYRVKVKLVVSRGGDVSVELPFVLMHPKPHDHIALPRPQSAA
B2: Venus-tagged arrestin-3 A87V base mutant, P32120 G65P (protein)
chain: B1 chain with G65P, A313K
B3: Venus-tagged arrestin-3 A87V base mutant, P32120 E157A (protein)
chain: B1 chain with E157A, A313K
B4: Venus-tagged arrestin-3 A87V base mutant, P32120 F245A (protein)
chain: B1 chain with F245A, A313K
B5: Venus-tagged arrestin-3 A87V base mutant, P32120 G65del (protein)
chain: MGEKPGTRVFKKSSPNCKLTVYLGKRDFVDHLDKVDPVDGVVLVDPDYLKDRKVFVTLTCAFRYREDLDVLGLSFRKDLFIANYQVFPPTPNPPRPPTRLQERLLRKLGQHAHPFFFTIPQNLPCSVTLQPGPEDTGKACGVDFEIRAFCAKSLEEKSHKRNSVRLVIRKVQFAPEKPGPQPSAETTRHFLMSDRSLHLEASLDKELYYHGEPLNVNVHVTNNSTKTVKKIKVSVRQYADICLFSTAQYKCPVAQVEQDDQVSPSSTFCKVYTITPLLSNNREKRGLALDGKLKHEDTNLASSTIVKEGANKEVLGILVSYRVKVKLVVSRGGDVSVELPFVLMHPKPHDHIALPRPQSAA

These molecules were tested against dopamine D2 receptor (long isoform), C-terminally tagged with Renilla luciferase variant 8 (human) (UniProt P14416) (assay: FRET or BRET; in-cell BRET in HEK293 arrestin-2/3 KO cells co-transfected with Venus-arrestin-3 (acceptor) and receptor-RLuc8 (donor); 10 uM agonist (carbachol for M2R, isoproterenol for β2AR, dopamine for D1R, quinpirole for D2R), 5 uM coelenterazine h; net BRET (with minus without agonist), average at 10 and 15 min and time course). Conditions: not given.

Row | reduction of binding (net BRET) against A87V | Molecule
1 | 80% | Venus-tagged arrestin-3 ΔG65 (on the A87V background) (from UniProt P32120 1-362) (natural protein)

Target: T1, dopamine D2 receptor (long isoform), …
Assay: BRET
Conditions: chain shown with the change; HEK293 arrestin 2/3 KO cells; agonist-induced minus basal BRET; average at 10 and 15 min; parent: est. 0.023; read off a plot

Row | response | Molecule
2 | 0.025 | B1
3 | 0.019 | B2
4 | 0.023 | B3
5 | 0.027 | B4

Target: T2, M2 muscarinic acetylcholine receptor, …
Assay: BRET
Conditions: chain shown with the change; HEK293 arrestin 2/3 KO cells; agonist-induced minus basal BRET; average at 10 and 15 min; parent: est. 0.029; read off a plot

Row | response | Molecule
6 | 0.032 | B1
7 | 0.023 | B2
8 | 0.026 | B3
9 | 0.031 | B4
10 | 0.019 | B5

Target: T3, dopamine D1 receptor, C-terminally …
Assay: BRET
Conditions: chain shown with the change; HEK293 arrestin 2/3 KO cells; agonist-induced minus basal BRET; average at 10 and 15 min; parent: est. 0.032; read off a plot

Row | response | Molecule
11 | 0.033 | B1
12 | 0.033 | B2
13 | 0.042 | B3
14 | 0.042 | B4
15 | 0.019 | B5

Target: T4, HA-tagged dopamine D2 receptor, P14416
Assay: co-immunoprecipitation (quantified immunoblot)
Conditions: chain shown with the change; HEK293 arrestin 2/3 KO cells; 10 μM quinpirole; non-specific binding (no HA-D2R) subtracted; parent: est. 8.4; read off a plot

Row | response | Molecule
16 | 2.7 | B5
